Consider 1 substance from paper PMC4031500.

Broadly, the stoichiometry N is a count of units in the complex or per binding partner.

The assay concerns the target chB6 (Bu-1), chicken B-lymphocyte allotypic marker (chicken (endogenous in DT40)). In words: non-reducing against reducing SDS-PAGE with Western blot; chB6 immunoprecipitated from DT40 lysate, SDS-PAGE without reducing agent, blot with anti-chB6 peptide antibody; compared with membrane fractions run with 2-mercaptoethanol. In general terms: Immunoblotting shows a protein as a band on a membrane.

The substance “chB6 (Bu-1), chicken B-lymphocyte allotypic marker (natural protein)” showed a stoichiometry N of 2.
